Four molecules from paper PMC10374466 can be followed below.

One may read the Kd as the constant that tells how readily two partners part at equilibrium. Low values mean tighter binding, high ones weaker binding.

Series [1] addresses T1, mouse IDO1 (Mus musculus, UniProt P28776 1-407). The experiment in a line: flow cytometry on protein-coated beads. For orientation: In flow cytometry, cells or beads pass a laser one at a time.
Series [2] has as its target T1, mouse IDO1. Put plainly: flow cytometry on protein-coated beads. The source holds these as a separate data set.

T1 sequence (P28776 whole entry): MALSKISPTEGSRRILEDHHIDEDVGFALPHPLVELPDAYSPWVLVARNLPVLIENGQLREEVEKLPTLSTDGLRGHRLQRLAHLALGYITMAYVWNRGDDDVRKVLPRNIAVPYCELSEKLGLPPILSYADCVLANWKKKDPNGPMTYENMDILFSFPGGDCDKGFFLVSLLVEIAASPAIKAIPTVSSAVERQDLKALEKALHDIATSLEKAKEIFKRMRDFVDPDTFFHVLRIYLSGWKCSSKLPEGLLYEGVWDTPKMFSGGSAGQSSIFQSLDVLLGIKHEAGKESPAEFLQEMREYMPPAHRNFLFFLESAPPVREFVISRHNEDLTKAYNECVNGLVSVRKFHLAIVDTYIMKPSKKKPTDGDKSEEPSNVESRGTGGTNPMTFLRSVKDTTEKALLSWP

B1: #3 (ssDNA)
DNA: CAGCACCGTCAACTGAATAGGAAGATACCCGGGGGTACCGTTACCGCTGTGAACGGAGGTGATGCGATGGAGATGT
As to B1, the binding result with mouse IDO1 [1] is listed as “binds”.

B2: #1 (ssDNA)
DNA: CAGCACCGTCAACTGAATATCAGGACGGACCTGGGGAGGTCAGTTAGCCCTCTGAACTGTGATGCGATGGAGATGT
In the case of B2, the binding result in the series with mouse IDO1 [1] is given as “binds”.

B3: IDO-APT (#4) (ssDNA)
DNA: CAGCACCGTCAACTGAATGCCAACGGCATATCCGGACAGGCGGGAACCTAGGGCCTTTGTGATGCGATGGAGATGT
Molecule B3 came in with a Kd with mouse IDO1 [2] of 131 ± 9 nM.

B4: #2 (ssDNA)
DNA: CAGCACCGTCAACTGAATCCGTCACTCGCTCGGGGGTCCGACATTTACCCTGTGAAATGTGATGCGATGGAGATGT
For the molecule B4, in the series with mouse IDO1 [1], the binding result is recorded as “binds”.
